{"source": "paper PMC9793359", "key": {"[1]": {"target": "Flag-tagged nsp8 of SARS-CoV-2 (SARS-CoV-2) (UniProt P0DTD1)", "assay": "co-IP"}, "[2]": {"target": "Flag-tagged nsp7 of SARS-CoV-2 (SARS-CoV-2) (UniProt P0DTD1)", "assay": "co-IP"}}, "data": [{"substance": "HA-tagged nsp12 T20A mutant (natural protein)", "values": [{"measurement": "decrease in co-precipitated complex against wild type", "setting": "[1]", "result": 33, "unit": "%"}, {"measurement": "decrease in co-precipitated complex against wild type", "setting": "[2]", "result": 33, "unit": "%"}]}, {"substance": "HA-tagged nsp12 T20E mutant (natural protein)", "values": [{"measurement": "increase in co-precipitated complex against wild type", "setting": "[1]", "result": 2, "unit": "fold"}, {"measurement": "increase in co-precipitated complex against wild type", "setting": "[2]", "result": 2, "unit": "fold"}]}]}
